Test results: patent US20180334496A1 (KODIAK SCIENCES, published 2018)
Residue numbers refer to the chain shown, from its start.

B1: KCD014 (antibody, V domains shown)
VH: EVKLVESGGGLVQPGGSLKLSCAASGFTFSSYIMSWVRQTPEKRLEWVAYITNGGGNTYYPDTIKGRFTISRDNAKNTLYLQMSSLKSEDTAMYYCARHGTGYAMDYWGQGTSVTVSS
VL: EIVLTQSPTTMAASPGEKITITCSASSSISSNYLHWYQQKPGFSPKLLIYRTSNLASGVPARFSGSGSGTSYSLTIGTMEAEDVATYYCQQGSSIPLTFGAGTKLELK
B2: KCD063 (antibody, V domains shown)
VH: B1 VH with T28I, N57S, I64V, F68L, A97V, G100A, T101H, G102Y
VL: DIQMTQSPSSLSASLGGKVTITCKASQDINKYITWYQHKPGKGPRLLIHYTSTLQPGIPSRFSGSGSGRDYSFSISNLEPEDIATYYCLQYDNLLYTFGGGTKLEIK
B3: KCD077 (antibody, V domains shown)
VH: EVQLQQSGAELVRPGALVKLSCKASGFNIKDYYMHWVKQRPEQGLEWIGWIDPENGHTIYDPRFQGKATITADTSSNTAYLQLSSLTSEDTAVYYCSRGLLGFAYWGQGTLVTVSA
VL: DIVMTQSQKFMSTSVGDRVSVTCKASQNVGTNVAWYQQKPGQSPKALIYTASYRYSGVPDRFTGSGSGTDFTLTISNVQSEDLAEYFCQQYNSYPHMYTFGGGTKLEIK
B4: KCD133 (antibody, V domains shown)
VH: EVQLVESGGGLLQPKGSLKLSCAASGFTFNTYAMNWVRQAPGKGLEWVARIRSKSSNYATYYADSVKDRFTISRDDSQSMFYLEMNNLKTEDTAMYYCVRDRGYYYVMDYWGQGTSVTVSS
VL: DIVLTQSPASLAVSLGQRATISCRASESVEYYGTSLMQWYQQKPGQPPKLLINAASNVESGVPARFSGSGSGTDFSLNIHPVEEDDIAMYFCQQSRKVPWTFGGGTKLEIK
B5: KCD135 (antibody, V domains shown)
VH: EVQLQQSGPELVKPGASVRMSCKASGYIFTDYSIHWVKQSHGKSLEWIGYINPNNGGTSYNQKFKGKATLTVNKSSTTAYMELRSLTSEDSAVYFCARDTTIVGDYWGQGTTLTVSS
VL: DIVMTQSQKFMSTSVGDRVSVTCKASQHVGTNVVWYQQKPGQSPKALIYSASYRYSGVPDRFSGSGSGTDFTLTISNVQSEDLAEYFCQQFNSYPLTFGGGTKLEIK
B6: KCD139 (antibody, V domains shown)
VH: EVQLQQSGAELVRPGSSVKMSCKTSGYTFTSYGINWVKQRPGQGLEWIGYIYIANGYTENNEKFKGKAKLTSDISSSTAYMQLSSLTSEDSAIYFCARRFDYAGALDYWGQGTSVTVSS
VL: DIVLTQSPASLAVSLGQRATISCRASESVDSYGNSFMHWYQQKPGQPPKLLIHRASNLESGIPARFSGSGSRTDFTLTINPVEADDVAIYYCQQTNDDPYTFGGGTNLEIK
B7: KCD210 (antibody, V domains shown)
VH: EVQLQQSGPVLVKPGASVTMSCKASGYTFTEYYMNWVKQSHGKSLDWIGVINPYSGGTSYKQKFKDKATLTVDKSSSTAYMELNGLTSEDSAVYFCVRGGLRRNYFDYWGQGTTLTVSS
VL: EIVLTQSPALMTASPGEKVTITCSVSSSISSTNLHWYQQKSGTSPKPWIFGTSNLASGVPVRFSGSGSGTSYSLTISNMEAEDAATYYCQQWNSYPFTFGTGTKLEIK
B8: KCD224 (antibody, V domains shown)
VH: QVQLKESGPGLVAPSQSLSITCTVSGFSLTSYGVDWIRQSPGKGLEWLGVIWGVGSTNYNSALKSRLSISKDNSKSQVFLKMNSLQTDDTAMYYCARSYDGSYWYFDVWGTGTTVTVSS
VL: DIQMTQTTSSLSASLGDRVTISCRASQVISNYLNWYQQKPDGTVKLLIYYTSRLHSGVPSRFSGSGSGTDYSLTISNLEPEDIATYYCQQYSKLPYTFGSGTKLEIK
B9: KCD066 (antibody, V domains shown)
VH: QVQLQQSAAELARPGASVKMSCKASGYTFTDYTMHWVKQRPGQGLEWIGYINPSGGYTDYNQKFKDKTALTADKSSSTAYMQLSSLTSEDSAVYYCARRRDYWFAYWGQGTLVTVSA
VL: DIVMSQSPSSLAVSVGEKVTMSCKSSQSLLYSGNQKNYLAWYQQKPGQSPKLLIYWASTRESGVPDRFTGSGSGTDFTLTISSVKAEDLAVYYCHQYYSYLTFGAGTKLELK
B10: KCD075 (antibody, V domains shown)
VH: QVQLLQPGAELVRPGTSVKLSCKASGYTFSNYWINWVKQRPGQGLEWIGNIYPSDSSINYNQKFKDKATLTVDKSSTTAYMQLSSPTSEDSAVYYCTGTDWYFDVWGAGTTVTVSS
VL: B8 VL with R24S, A25G, S26G, V28G, V44F, R53T, I83V, S100G
B11: KCD110 (antibody, V domains shown)
VH: EVQLQQSGPELVKPGASVKISCKASGYSFTGYYMHWVKQSHGNILDWIGYIDPDNGVSSKNQKFTGKATVTADKSSSTAYMELRSLTSEDSAVYYCAGYYGSSWYWYFDVWGTGTTVTVSS
VL: QIVLSQSPAILSASPGEKVTMTCRASSSVSYMHWYQQKPGSSPKPWIYATSNLASGVPARFSGSGSGTSYSLTISRVEAEDAATYYCQQWSSNPYTFGGGTKLEIK
B12: KCD131 (antibody, V domains shown)
VH: QVQLQQSGPELVKPGASVKISCKASAYTFTDYYINWVKQRPGQGPEWIGWIFPGSNSTYSNEKFEVKATLTVDESSSTAYMLLSSLTSEDSAVYFCARLGYFGSSYHALDYWGQGTSVTVSS
VL: DIQMTQSPASLSVSVGETVTITCRASENIYSHLAWFQQKQGKSPRLLVYSATNLPDGVPSRFSGSGSGTQYSLKINILQSEDFGSYYCQHFWGTPWTFGGGTKLEIK
B13: KCD136 (antibody, V domains shown)
VH: EVQLQQSVAELVRPGASVKLSCSASGFNIKNTYMHWVNQRPEQGLEWIGRIDPANGITKYAPNFQGKATITADTSSNTAYLQLSNLTSEDTAIYYCTRAMDYWGQGTSVTVSS
VL: QIVLTQSPAIMSASPGEKVTMTCSASSSVSYMYWYQQKPGSSPRLLIYDISNLASGVPVRFSGSGSGTSYSLTISRMEAEDAATYYCQQWDTYPWTFGGGTKLEIK
B14: KCD212 (antibody, V domains shown)
VH: EVHLVESGGDLVKPGGSLKLSCAASGFTFSRYGMSWVRQTPDKRLEWVATISSAGSYTYYPDSVKGRFTISRDNAKNTLFLQMSSLKSEDTAMYYCARPLNYYGTSSFDYWGQGTTLTVSS
VL: QIVLTQSPAIMSASPGEKVTMTCRASSSVSSTYLHWYQQKPGSSPKLWIYSTSNLASGVPPRFSGSGSGTSYSLTISSVEAEDAATYYCQQYDSSPNTFGAGTKLELK
B15: KCD219 (antibody, V domains shown)
VH: QVQLQQSGPELVKPGASVKISCKASGYTFTDYYINWVKQRPGQGLEWIGWIFPGSGSTYYNEKFKGKATLTVDKSSSTAYMLLSSLPSEDSAVYFCARYGYYGSSFYAMDYWGQGTSVTVSS
VL: B12 VL with H32N, F36Y, R45Q, S50A, P55A, I77S, T94S, W96P
B16: KCD225 (antibody, V domains shown)
VH: B15 VH with V37M, G56D, P87T, Y99L, G103S, S104H, F106Y
VL: DIQMTQSPASLSVSTGETVTITCRASENIYSNLAWFQQKQGKSPQLLVYAATNLADGVPSRFSGSGSGTQYSLKITSLQSEDFGSYYCQHFWGTPLTFGAGTKLDLK

Molecular target: T1, human complement factor D purified from serum (human, UniProt P00746 26-253)
T1 construct: serum-purified (CompTech); also called hCFD-Comptech; CFD
T1 sequence (P00746 26-253): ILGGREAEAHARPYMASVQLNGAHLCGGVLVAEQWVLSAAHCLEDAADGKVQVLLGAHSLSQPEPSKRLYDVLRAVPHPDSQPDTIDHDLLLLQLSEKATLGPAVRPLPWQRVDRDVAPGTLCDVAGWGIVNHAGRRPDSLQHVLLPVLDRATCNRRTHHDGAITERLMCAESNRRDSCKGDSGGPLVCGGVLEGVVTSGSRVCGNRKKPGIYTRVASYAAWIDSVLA
Assay: SPR MX96

Row | Binder | Kd
1 | B1 | 22 nM
2 | B2 | 33 nM
3 | B3 | 17 nM
4 | B4 | 12 nM

Molecular target: T2, recombinant cynomolgus CFD, His-tagged (cynomolgus)
T2 construct: also called rcyCFD-His; recombinant Cyno-CFD
Assay: SPR MX96

Row | Binder | Kd
5 | B2 | 24 nM
6 | B3 | 14 nM
7 | B4 | 84 nM

Molecular target: T3, recombinant human CFD, His-tagged (human, UniProt P00746 26-253)
T3 construct: also called rhCFD-His
T3 sequence (P00746 26-253 limits assumed): as the sequence (P00746 26-253) above
Assay: SPR MX96

Row | Binder | Kd
8 | B1 | 20 nM
9 | B4 | 14 nM

Molecular target: T4, recombinant human CFD mutant 1 (R157A, R207A), His-tagged (human, UniProt P00746 26-253)
T4 construct: positions are linear positions in the mature protein; also called rhCFD-mut1-His; Mut1
T4 sequence (P00746 26-253 R182A/R232A limits assumed): as the sequence (P00746 26-253) above, with R157A, R207A counted along it
Assay: SPR MX96

Row | Binder | Kd
10 | B3 | 13 nM

Molecular target: T5, human Complement Factor D (CFD), purified from human serum (human, UniProt P00746 26-253)
T5 construct: serum purified (CompTech A136); also called serum purified CFD; hCFD-Comptech
T5 sequence (P00746 26-253): as the sequence (P00746 26-253) above
Assay: SPR MX96, mAbs amine-coupled, CFD injected

Row | Binder | Kd
11 | B5 | 21.2 nM
12 | B6 | 5.28 nM
13 | B7 | 3.52 nM
14 | B8 | 1.17 nM
15 | B9 | 2.88 nM
16 | B10 | 3.75 nM
17 | B11 | 3.71 nM
18 | B12 | 0.14 nM
19 | B13 | 4.46 nM
20 | B14 | 0.469 nM
21 | B15 | 4.3 nM
22 | B16 | 8.67 nM
